Target: metabotropic glutamate receptor 2 (mGlu2) (human, UniProt Q14416 19-872)
Experiment: cryo-EM structure

Chain of metabotropic glutamate receptor 2 (mGlu2) (Q14416 19-872): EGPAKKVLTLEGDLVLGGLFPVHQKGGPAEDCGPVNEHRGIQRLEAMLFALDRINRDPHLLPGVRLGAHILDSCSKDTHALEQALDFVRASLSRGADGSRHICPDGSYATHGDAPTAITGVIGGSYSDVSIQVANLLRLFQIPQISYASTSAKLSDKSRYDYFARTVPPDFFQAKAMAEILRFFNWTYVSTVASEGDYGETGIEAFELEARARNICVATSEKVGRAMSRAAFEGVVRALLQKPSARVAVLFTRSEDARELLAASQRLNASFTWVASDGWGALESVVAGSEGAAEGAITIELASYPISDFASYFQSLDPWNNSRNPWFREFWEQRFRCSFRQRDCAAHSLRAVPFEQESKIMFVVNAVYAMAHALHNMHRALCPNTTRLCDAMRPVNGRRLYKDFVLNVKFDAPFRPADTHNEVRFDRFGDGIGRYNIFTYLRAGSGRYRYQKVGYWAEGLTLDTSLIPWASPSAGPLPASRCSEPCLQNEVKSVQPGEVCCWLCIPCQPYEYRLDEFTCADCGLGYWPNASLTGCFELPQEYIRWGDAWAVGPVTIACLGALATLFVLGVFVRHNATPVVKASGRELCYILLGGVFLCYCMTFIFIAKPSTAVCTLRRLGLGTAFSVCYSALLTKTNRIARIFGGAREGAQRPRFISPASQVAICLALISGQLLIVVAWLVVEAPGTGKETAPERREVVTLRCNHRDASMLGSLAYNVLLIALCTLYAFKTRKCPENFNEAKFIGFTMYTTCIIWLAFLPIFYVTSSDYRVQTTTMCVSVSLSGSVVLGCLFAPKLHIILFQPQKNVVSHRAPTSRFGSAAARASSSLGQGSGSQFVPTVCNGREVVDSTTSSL

- binding result: binds
Binder: LPQEYIRW [FTM peptide (Force Transduction Motif, mGlu2 residues 556-563)]

— paper doi:10.64898/2025.12.08.692793 (bioRxiv, 2025)
